Patent publication US20230348569A1

What was measured:
[1] = molecular target: SARS-CoV-2 spike protein (S-wt, Wuhan-Hu-1, NCBI Accession Number MN908947.3) on VSV-SARS-CoV-2-S pseudoparticles (SARS-CoV-2) (UniProt P0DTC2); test: cell-based or functional assay
[2] = molecular target: MERS.hFc (mAb2664-L1) (MERS-CoV) (UniProt K9N5Q8); test: Luminex bead binding, supernatant
[3] = molecular target: MERS.mFc (mAb2663-L1) (MERS-CoV) (UniProt K9N5Q8); test: Luminex bead binding, supernatant
[4] = molecular target: Bt-MERS.hFc (mAb2664-L2) (MERS-CoV) (UniProt K9N5Q8); test: Luminex bead binding, supernatant

Substance | neutralization potency IC50 [1] [pM] | MFI [2] [MFI] | MFI [3] [MFI] | MFI [4] [MFI]
mAb10934 (antibody) | 54.4 | – | – | –
mAb10936 (antibody) | 111 | – | – | –
mAb10987 (antibody) | 40.6 | 235 | 196 | 172
